This is an account of results in publication PMC7347537.

One may read the stoichiometry N as the number of molecules, sites or subunits per partner or assembly.

The test concerns the target full-length IRG1 from Bacillus subtilis (immune-responsive gene 1, cis-aconitate decarboxylase) (Bacillus subtilis). Briefly: SEC-MALS; Superdex 200 10/300, 20 mM Tris-HCl (pH 8.0), 150 mM NaCl, 0.4 mL/min, room temperature; DAWN-treos MALS detector.

“full-length IRG1 from Bacillus subtilis (immune-responsive gene 1, cis-aconitate decarboxylase) (enzyme)” had a stoichiometry N of 2.
